Here are results for 1 substance from article PMC4070425.

Test [1] deals with JR-CSF Env E647A (variant pseudovirus) (HIV-1 isolate JR-CSF).
Test [2] deals with JR-CSF Env E647G (variant pseudovirus) (HIV-1 isolate JR-CSF).
Test [3] deals with JR-CSF Env N611A (variant pseudovirus) (HIV-1 isolate JR-CSF).
The target in test [4] is JR-CSF Env N611D (variant pseudovirus) (HIV-1 isolate JR-CSF).
Test [5] concerns the target JR-CSF Env N637A (variant pseudovirus) (HIV-1 isolate JR-CSF).
Test [6] concerns the target JR-CSF Env N637K (variant pseudovirus) (HIV-1 isolate JR-CSF).
Test [7] has as its target JR-CSF Env S613A (variant pseudovirus) (HIV-1 isolate JR-CSF).
Test [8] concerns the target JR-CSF Env T639A (variant pseudovirus) (HIV-1 isolate JR-CSF).
Test [9] has as its target JR-CSF Env wild type (pseudovirus) (HIV-1 isolate JR-CSF) (UniProt P20871).
The target of test [10] is JR-FL Env E647A (variant pseudovirus) (HIV-1 isolate JR-FL).
In test [11] the target is JR-FL Env E647G (variant pseudovirus) (HIV-1 isolate JR-FL).
The target in test [12] is JR-FL Env N611A (variant pseudovirus) (HIV-1 isolate JR-FL).
Test [13] addresses JR-FL Env N611D (variant pseudovirus) (HIV-1 isolate JR-FL).
Test [14] concerns the target JR-FL Env N637A (variant pseudovirus) (HIV-1 isolate JR-FL).
The target of test [15] is JR-FL Env N637K (variant pseudovirus) (HIV-1 isolate JR-FL).
Test [16] concerns the target LAI Env A501T (variant virus) (HIV-1 strain LAI).
The target in test [17] is LAI Env E647A (variant virus) (HIV-1 strain LAI).
For test [18], the target named is LAI Env E647G (variant virus) (HIV-1 strain LAI).
Test [19] addresses LAI Env N611A (variant virus) (HIV-1 strain LAI).
Test [20] addresses LAI Env N611D (variant virus) (HIV-1 strain LAI).
For test [21], the target named is LAI Env N637A (variant virus) (HIV-1 strain LAI).
The target of test [22] is LAI Env N637K (variant virus) (HIV-1 strain LAI).
The target in test [23] is LAI Env wild type (virus) (HIV-1 strain LAI) (UniProt P03377).

Chain of UniProt P20871 (P20871 32-848): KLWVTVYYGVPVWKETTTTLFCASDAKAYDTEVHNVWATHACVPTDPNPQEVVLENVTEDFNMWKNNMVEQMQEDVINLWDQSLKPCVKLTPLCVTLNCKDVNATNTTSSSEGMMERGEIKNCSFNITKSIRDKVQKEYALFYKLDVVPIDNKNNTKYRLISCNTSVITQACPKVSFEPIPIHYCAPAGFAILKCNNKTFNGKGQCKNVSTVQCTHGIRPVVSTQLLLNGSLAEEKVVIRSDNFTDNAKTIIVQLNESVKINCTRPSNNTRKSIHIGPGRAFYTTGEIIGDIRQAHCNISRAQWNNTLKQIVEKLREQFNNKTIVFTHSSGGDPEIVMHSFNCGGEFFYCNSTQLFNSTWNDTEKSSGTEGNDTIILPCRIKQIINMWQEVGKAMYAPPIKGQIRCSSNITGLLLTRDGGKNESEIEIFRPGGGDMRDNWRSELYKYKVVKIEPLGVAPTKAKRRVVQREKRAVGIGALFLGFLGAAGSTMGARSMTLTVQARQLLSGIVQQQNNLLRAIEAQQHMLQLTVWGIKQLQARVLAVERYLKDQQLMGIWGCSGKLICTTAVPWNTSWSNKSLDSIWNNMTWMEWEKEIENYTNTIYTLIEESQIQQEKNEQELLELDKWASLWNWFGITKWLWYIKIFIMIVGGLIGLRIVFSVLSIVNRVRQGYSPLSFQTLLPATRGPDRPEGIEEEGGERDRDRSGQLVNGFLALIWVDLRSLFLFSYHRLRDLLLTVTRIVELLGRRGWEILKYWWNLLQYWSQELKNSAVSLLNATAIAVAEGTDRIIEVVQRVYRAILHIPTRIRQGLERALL

Consider PGT151 (antibody), for which the %Maximum neutralization (JR-CSF) in test [1] is 33%; in test [2] it was 7%; in [3], 44%; in test [4] it was 0%; in test [5] it was 50%; in [6], 20%. The %Maximum neutralization (JR-CSF) turned out to be 41% in [7], 52% in [8] and 93% in test [9]. In addition, the %Maximum neutralization (JR-FL) in test [10] was determined as 72%; in [11] it was 94%; in test [12], 31%; in [13], 8%; in test [14], 65%; in [15] it was 33%. Moreover, the %Maximum neutralization (LAI) in [16] was 75%; in test [17], 96%; in test [18], 95%; in [19] it was 81%; in [20] it was 45%; in test [21], 70%. The %Maximum neutralization (LAI) in test [22] stood at 37%; in test [23] it was 100%.
